Reference: patent US20220056104A1 (Janssen / Centocor, published 2022)
Changes are numbered by the printed parent chain. Numbers in names are those of the source. Blank lines part the entries; values can stand above or below the binder they belong to.

Tests used:
[1] = target: T1, Recombinant DR3-Fc (R&D Systems, cat. #943-D3) (UniProt Q93038 25-199, limits assumed); assay: ELISA, DR3-Fc immobilized
T1 construct: dimeric MW~92 kDa; also called DR3 receptor; Fc-DR3; not shown: Fc part of the bought fusion
T1 sequence (looked up): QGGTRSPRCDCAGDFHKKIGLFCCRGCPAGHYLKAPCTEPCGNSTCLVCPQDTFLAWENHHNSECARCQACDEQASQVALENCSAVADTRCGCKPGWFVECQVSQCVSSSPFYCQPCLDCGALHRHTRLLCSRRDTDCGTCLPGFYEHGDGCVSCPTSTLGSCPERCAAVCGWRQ
Procedure: All ELISA-based measurements were collected in triplicate, and error values report the standard error between measurements. Recombinant DR3-Fc (R&D Systems, cat. #943-D3), dimeric MW˜92 kDa, was non-specifically immobilized onto plates (Nunc maxisorp, cat. #436110) in 100 μL DR3-Fc, diluted to 10 μg/mL onto a 96-well White Maxisorp plate (Nunc, cat #436110) (O/N, 4° C.). Plates were block for 1 hour at room temperature with 250 μl/well of casein buffer and blocking buffer was removed. 50 μL of TL1A variants were diluted in StartingBlock PBS (Thermo Fisher Scientific), at 25 μg/mL, diluting 3× over each well, according to the plate map description for 20160623) per well on a 96-well White Maxisorp plate (Nunc, cat #: 436110) (overnight at 4° C.).
Plates were washed three times with TBST. 100 μl/well polyclonal rabbit anti-human TL1A-biotin antibody (diluted 1:1000 in Starting Block PBS) was added and plates were incubated for 1 hour at room temperature with shaking at 150 rpm. TL1A-biotin antibody was removed and 100 μl/well streptavidin-HRP conjugate (diluted 1:10,000 in Starting Block PBS) was added to plates. Plates were incubated for 1 hour at room temperature with shaking at 150 rpm. Plates were washed three times with TBST. 100 μl/well POD Chemiluminescence substrate (Roche, cat #: 11582950001) was added immediately prior to reading plate luminescence using a Molecular Devices M5 plate reader with a delay setting of 100 ms.
Variants of TL1A were generated and tested for binding to DR3 and DcR3 by ELISA as described.

DcR3 = target: T2, DcR3 (UniProt O95407 30-300, limits assumed); assay: ELISA, DcR3
T2 construct: the construct is not described; also called decoy receptor DcR3; TNFRSF6B
T2 sequence (looked up): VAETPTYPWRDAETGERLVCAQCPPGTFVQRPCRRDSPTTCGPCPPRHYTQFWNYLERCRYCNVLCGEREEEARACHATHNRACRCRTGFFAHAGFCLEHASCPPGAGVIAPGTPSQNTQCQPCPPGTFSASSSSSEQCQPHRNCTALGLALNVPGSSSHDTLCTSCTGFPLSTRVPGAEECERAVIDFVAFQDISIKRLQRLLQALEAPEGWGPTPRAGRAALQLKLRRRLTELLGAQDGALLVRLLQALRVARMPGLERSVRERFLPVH

B1: TL1W24 (His-TEV-hTL1A 72-251 F209A) (ligand)
chain: HHHHHHENLYFQGLKGQEFAPSHQQVYAPLRADGDKPRAHLTVVRQTPTQHFKNQFPALHWEHELGLAFTKNRMNYTNKFLLIPESGDYFIYSQVTFRGMTSECSEIRQAGRPNKPDSITVVITKVTDSYPEPTQLLMGTKSVCEVGSNWAQPIYLGAMFSLQEGDKLMVNVSDISLVDYTKEDKTFFGAFLL
notes: also called TL1W24 (F209A)
- EC50 [1]: 281 nM
- Rel EC50 [1]: 10.7 ratio (head: nM)
- EC50 (DcR3): 30.7 nM
- Rel EC50 (DcR3): 6.7 ratio (head: nM)

B3: TL1W37 (His-TEV-TL1A L123E) (ligand)
chain: B1 chain with L65E, A151F
notes: also called TL1W37 (L123E)
- EC50 [1]: 423 nM
- Rel EC50 [1]: 16.1 ratio (head: nM)
- EC50 (DcR3): 24.3 nM
- Rel EC50 (DcR3): 5.3 ratio (head: nM)

B4: TL1W27 (His-TEV-hTL1A 72-251 T239E) (ligand)
chain: B1 chain with A151F, T181E
notes: also called TL1W27 (T239E)
- EC50 (DcR3): 34.3 nM
- Rel EC50 (DcR3): 7.5 ratio (head: nM)

B8: TL1W41 (His-TEV-TL1A E120A) (ligand)
chain: B1 chain with E62A, A151F
notes: also called TL1W41 (E120A)
- EC50 [1]: 100 nM
- Rel EC50 [1]: 3.8 ratio (head: nM)
- EC50 (DcR3): 32.6 nM
- Rel EC50 (DcR3): 7.1 ratio (head: nM)

B11: TL1W31 (GD: Single chain MMB in CBIS; His-TEV-hTL1A 72-251 R103Q) (ligand)
chain: B1 chain with R45Q, A151F
notes: also called TL1W31 (R103Q)
- EC50 [1]: 9.5 nM
- Rel EC50 [1]: 0.4 ratio (head: nM)
- EC50 (DcR3): 2.5 nM
- Rel EC50 (DcR3): 0.5 ratio (head: nM)

B14: TL1W39 (His-TEV-TL1A L123G) (ligand)
chain: B1 chain with L65G, A151F
notes: also called TL1W39 (L123G)
- EC50 [1]: 184 nM
- Rel EC50 [1]: 7 ratio (head: nM)
- EC50 (DcR3): 38.2 nM
- Rel EC50 (DcR3): 8.3 ratio (head: nM)

B16: TL1W25 (His-TEV-hTL1A 72-251 N207A) (ligand)
chain: B1 chain with N149A, A151F
notes: also called TL1W25 (N207A)
- EC50 [1]: 13.4 nM
- Rel EC50 [1]: 0.5 ratio (head: nM)
- EC50 (DcR3): 3.7 nM
- Rel EC50 (DcR3): 0.8 ratio (head: nM)

B17: TL1W29 (His-TEV-hTL1A 72-251 P189A) (ligand)
chain: B1 chain with P131A, A151F
notes: also called TL1W29 (P189A)
- EC50 [1]: 710 nM
- Rel EC50 [1]: 27.1 ratio (head: nM)
- EC50 (DcR3): 7.6 nM
- Rel EC50 (DcR3): 1.7 ratio (head: nM)

Other lines, results leading:

- EC50 (DcR3): 13.5 nM
- Rel EC50 (DcR3): 2.9 ratio (head: nM)
B2: TL1W88 (His-TEV-TL1A R156A) (ligand)
chain: B1 chain with R98A, A151F
notes: also called TL1W88 (R156A)

- EC50 (DcR3): 10.5 nM
- Rel EC50 (DcR3): 2.3 ratio (head: nM)
B5: TL1W128 (His-TEV-TL1A Y238S) (ligand)
chain: B1 chain with A151F, Y180S
notes: also called TL1W128 (Y238S)

- EC50 [1]: 14.8 nM
- Rel EC50 [1]: 0.6 ratio (head: nM)
B6: TL1W87 (His-TEV-TL1A G124D) (ligand)
chain: B1 chain with G66D, A151F
notes: also called TL1W87 (G124D)

- EC50 [1]: 168 nM
- Rel EC50 [1]: 6.4 ratio (head: nM)
- EC50 (DcR3): 59.1 nM
- Rel EC50 (DcR3): 12.8 ratio (head: nM)
B7: TL1W44 (His-TEV-TL1A P189K) (ligand)
chain: B1 chain with P131K, A151F
notes: also called TL1W44 (P189K)

- EC50 [1]: 284 nM
- Rel EC50 [1]: 10.8 ratio (head: nM)
B9: TL1W46 (His-TEV-TL1A T239W) (ligand)
chain: B1 chain with A151F, T181W
notes: also called TL1W46 (T239W)

- EC50 (DcR3): 8.3 nM
- Rel EC50 (DcR3): 1.8 ratio (head: nM)
B10: TL1W91 (His-TEV-TL1A R156E) (ligand)
chain: B1 chain with R98E, A151F
notes: also called TL1W91 (R156E)

- EC50 [1]: 77.2 nM
- Rel EC50 [1]: 2.9 ratio (head: nM)
- EC50 (DcR3): 8.1 nM
- Rel EC50 (DcR3): 1.8 ratio (head: nM)
B12: TL1W78 (His-TEV-TL1A R103H) (ligand)
chain: B1 chain with R45H, A151F
notes: also called TL1W78 (R103H)

- EC50 (DcR3): 2.9 nM
- Rel EC50 (DcR3): 0.6 ratio (head: nM)
B13: TL1W86 (His-TEV-TL1A G124K) (ligand)
chain: B1 chain with G66K, A151F
notes: also called TL1W86 (G124K)

- EC50 (DcR3): 20.4 nM
- Rel EC50 (DcR3): 4.4 ratio (head: nM)
B15: TL1W101 (His-TEV-TL1A S176N) (ligand)
chain: B1 chain with S118N, A151F
notes: also called TL1W101 (S176N)

- EC50 (DcR3): 17.3 nM
- Rel EC50 (DcR3): 3.8 ratio (head: nM)
B18: TL1W139 (His-TEV-TL1A E241Q) (ligand)
chain: B1 chain with A151F, E183Q
notes: also called TL1W139 (E241Q)
